ChEMBL document CHEMBL1122575, “Dependence of beta-lactamase stability on substructures within beta-lactam antibiotics” (J Med Chem, 1984)

Key:
[1] = substrate: CC1(C)SC2[C@H](NC(=O)c3ccccc3)C(=O)N2C1C(=O)O; test: (§1) Stability against beta-lactamase of Staphylococcus aureus
[2] = substrate: CC1(C)S[C@@H]2[C@H](NC(=O)Cc3ccccc3)C(=O)N2[C@H]1C(=O)O; test: as §1
[3] = substrate: COc1cccc(OC)c1C(=O)N[C@@H]1C(=O)N2C1SC(C)(C)C2C(=O)O; test: as §1

B1: Beta-lactamase (Staphylococcus aureus), P00807 (protein)
chain: MKKLIFLIVIALVLSACNSNSSHAKELNDLEKKYNAHIGVYALDTKSGKEVKFNSDKRFAYASTSKAINSAILLEQVPYNKLNKKVHINKDDIVAYSPILEKYVGKDITLKALIEASMTYSDNTANNKIIKEIGGIKKVKQRLKELGDKVTNPVRYEIELNYYSPKSKKDTSTPAAFGKTLNKLIANGKLSKENKKFLLDLMLNNKSGDTLIKDGVPKDYKVADKSGQAITYASRNDVAFVYPKGQSEPIVLVIFTNKDNKSDKPNDKLISETAKSVMKEF
B1 gave a Km [1] of 33 µM, a Km [2] of 12 µM and a Km [3] of 5000 µM.
